Results reported in PMC13215203, “Phosphorylation remodels the mitotic centrosome matrix to generate bipartite γ-tubulin complex docking sites” (Science Advances, 2026).

T1: untagged SPD-5 amino acids 101-473, not phosphorylated (C. elegans, UniProt P91349 101-473)
T1 construct: also called fragment containing the γTuNA-In and PRGB2; source: E. coli BL21(DE3) pLysS, purified (glutathione agarose, cut from GST with PreScission or HRV-3C protease)
T1 sequence (looked up): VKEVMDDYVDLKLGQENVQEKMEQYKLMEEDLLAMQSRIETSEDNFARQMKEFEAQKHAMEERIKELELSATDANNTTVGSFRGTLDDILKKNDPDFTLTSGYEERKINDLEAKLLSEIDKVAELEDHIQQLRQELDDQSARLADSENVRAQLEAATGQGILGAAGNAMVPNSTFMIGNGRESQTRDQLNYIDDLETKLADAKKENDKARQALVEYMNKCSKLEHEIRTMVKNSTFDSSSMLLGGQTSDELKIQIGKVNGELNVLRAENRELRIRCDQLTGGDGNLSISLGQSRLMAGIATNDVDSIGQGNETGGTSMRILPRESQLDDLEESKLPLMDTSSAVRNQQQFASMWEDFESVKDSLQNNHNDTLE

T2: M6HH-tagged SPD-5 amino acids 1-113 (PRGB1), not phosphorylated (C. elegans, UniProt P91349 1-113)
T2 construct: source: E. coli BL21(DE3) pLysS, purified (Ni-NTA)
T2 sequence (looked up): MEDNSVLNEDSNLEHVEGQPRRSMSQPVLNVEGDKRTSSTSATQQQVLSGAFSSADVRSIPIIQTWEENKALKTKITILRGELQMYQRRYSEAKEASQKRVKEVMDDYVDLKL


What was measured:
[1] = target: the molecule itself; assay: SEC-MALS; Superose 6 increase 10/300 or Superdex 200 increase 10/300 in 20 mM tris-HCl pH 7.5, 50 mM NaCl, 5 mM EGTA, 2 mM MgCl2, 1 mM DTT; 120 μl of ~2.0 mg/ml protein loaded; with or without PLK1 phosphorylation
[2] = target: T1, untagged SPD-5 amino acids 101-473, not …; assay: pull-down; MBP pull-down: purified SPD-5 fragments mixed (2.0 μM) with or without PLK1(T194D) in kinase buffer, then 75 nM each with anti-MBP antibody in lysis buffer 2 h at 4°C and protein A beads 1 h; M6HH-tagged fragment is the bait; immunoblot; settings: both partners purified
[3] = target: T2, M6HH-tagged SPD-5 amino acids 1-113 …; assay: as above; settings: both partners purified

Row | Binder | stoichiometry N [1] | other results
1 | untagged SPD-5 amino acids 1-473, not phosphorylated (domain or fragment, C. elegans, UniProt P91349 1-473, looked up, also called SPD-5 N terminus; source: E. coli BL21(DE3) pLysS, purified (glutathione agarose, cut from GST with PreScission or HRV-3C protease; gel filtration)) MEDNSVLNEDSNLEHVEGQPRRSMSQPVLNVEGDKRTSSTSATQQQVLSGAFSSADVRSIPIIQTWEENKALKTKITILRGELQMYQRRYSEAKEASQKRVKEVMDDYVDLKLGQENVQEKMEQYKLMEEDLLAMQSRIETSEDNFARQMKEFEAQKHAMEERIKELELSATDANNTTVGSFRGTLDDILKKNDPDFTLTSGYEERKINDLEAKLLSEIDKVAELEDHIQQLRQELDDQSARLADSENVRAQLEAATGQGILGAAGNAMVPNSTFMIGNGRESQTRDQLNYIDDLETKLADAKKENDKARQALVEYMNKCSKLEHEIRTMVKNSTFDSSSMLLGGQTSDELKIQIGKVNGELNVLRAENRELRIRCDQLTGGDGNLSISLGQSRLMAGIATNDVDSIGQGNETGGTSMRILPRESQLDDLEESKLPLMDTSSAVRNQQQFASMWEDFESVKDSLQNNHNDTLE | 2 | 
2 | untagged SPD-5 amino acids 1-473, phosphorylated by PLK1 (domain or fragment, C. elegans, UniProt P91349 1-473, looked up, phosphorylated in vitro by PLK1; predicted sites S5, S11, S170, T178, T198, T274, T335, S339, S340, also called SPD-5 N terminus; source: E. coli BL21(DE3) pLysS, purified (glutathione agarose, cut from GST), then incubated with PLK1 and ATP) MEDNSVLNEDSNLEHVEGQPRRSMSQPVLNVEGDKRTSSTSATQQQVLSGAFSSADVRSIPIIQTWEENKALKTKITILRGELQMYQRRYSEAKEASQKRVKEVMDDYVDLKLGQENVQEKMEQYKLMEEDLLAMQSRIETSEDNFARQMKEFEAQKHAMEERIKELELSATDANNTTVGSFRGTLDDILKKNDPDFTLTSGYEERKINDLEAKLLSEIDKVAELEDHIQQLRQELDDQSARLADSENVRAQLEAATGQGILGAAGNAMVPNSTFMIGNGRESQTRDQLNYIDDLETKLADAKKENDKARQALVEYMNKCSKLEHEIRTMVKNSTFDSSSMLLGGQTSDELKIQIGKVNGELNVLRAENRELRIRCDQLTGGDGNLSISLGQSRLMAGIATNDVDSIGQGNETGGTSMRILPRESQLDDLEESKLPLMDTSSAVRNQQQFASMWEDFESVKDSLQNNHNDTLE | 2 | 
3 | M6HH-tagged SPD-5 amino acids 1-473, not phosphorylated (domain or fragment, C. elegans, UniProt P91349 1-473, looked up, source: E. coli BL21(DE3) pLysS, purified (Ni-NTA)) MEDNSVLNEDSNLEHVEGQPRRSMSQPVLNVEGDKRTSSTSATQQQVLSGAFSSADVRSIPIIQTWEENKALKTKITILRGELQMYQRRYSEAKEASQKRVKEVMDDYVDLKLGQENVQEKMEQYKLMEEDLLAMQSRIETSEDNFARQMKEFEAQKHAMEERIKELELSATDANNTTVGSFRGTLDDILKKNDPDFTLTSGYEERKINDLEAKLLSEIDKVAELEDHIQQLRQELDDQSARLADSENVRAQLEAATGQGILGAAGNAMVPNSTFMIGNGRESQTRDQLNYIDDLETKLADAKKENDKARQALVEYMNKCSKLEHEIRTMVKNSTFDSSSMLLGGQTSDELKIQIGKVNGELNVLRAENRELRIRCDQLTGGDGNLSISLGQSRLMAGIATNDVDSIGQGNETGGTSMRILPRESQLDDLEESKLPLMDTSSAVRNQQQFASMWEDFESVKDSLQNNHNDTLE | 2 | 
4 | M6HH-tagged SPD-5 amino acids 1-101 (PRGB1), not phosphorylated (domain or fragment, C. elegans, UniProt P91349 1-101, looked up, source: E. coli BL21(DE3) pLysS, purified (Ni-NTA)) MEDNSVLNEDSNLEHVEGQPRRSMSQPVLNVEGDKRTSSTSATQQQVLSGAFSSADVRSIPIIQTWEENKALKTKITILRGELQMYQRRYSEAKEASQKRV |  | binding result [2]: binds
5 | Halo-tagged SPD-5 amino acids 135-200, not phosphorylated (domain or fragment, C. elegans, UniProt P91349 135-200, looked up, source: E. coli BL21(DE3) pLysS, purified (Ni-NTA)) MQSRIETSEDNFARQMKEFEAQKHAMEERIKELELSATDANNTTVGSFRGTLDDILKKNDPDFTLT |  | binding result [3]: binds
6 | M6HH-tagged SPD-5 amino acids 1-345, not phosphorylated (domain or fragment, C. elegans, UniProt P91349 1-345, looked up, source: E. coli BL21(DE3) pLysS, purified (Ni-NTA)) MEDNSVLNEDSNLEHVEGQPRRSMSQPVLNVEGDKRTSSTSATQQQVLSGAFSSADVRSIPIIQTWEENKALKTKITILRGELQMYQRRYSEAKEASQKRVKEVMDDYVDLKLGQENVQEKMEQYKLMEEDLLAMQSRIETSEDNFARQMKEFEAQKHAMEERIKELELSATDANNTTVGSFRGTLDDILKKNDPDFTLTSGYEERKINDLEAKLLSEIDKVAELEDHIQQLRQELDDQSARLADSENVRAQLEAATGQGILGAAGNAMVPNSTFMIGNGRESQTRDQLNYIDDLETKLADAKKENDKARQALVEYMNKCSKLEHEIRTMVKNSTFDSSSMLLGG | 2 | 
